Source: patent publication US20190112392A1 (Ablynx, published 2019)
Where a chain is given by its changes, count along the chain named.

T1: hCEACAM-5 (R&D Systems, #4128-CM) (human, UniProt P06731 35-685)
T1 construct: Bought protein; also called human CEACAM5 protein
T1 sequence (looked up): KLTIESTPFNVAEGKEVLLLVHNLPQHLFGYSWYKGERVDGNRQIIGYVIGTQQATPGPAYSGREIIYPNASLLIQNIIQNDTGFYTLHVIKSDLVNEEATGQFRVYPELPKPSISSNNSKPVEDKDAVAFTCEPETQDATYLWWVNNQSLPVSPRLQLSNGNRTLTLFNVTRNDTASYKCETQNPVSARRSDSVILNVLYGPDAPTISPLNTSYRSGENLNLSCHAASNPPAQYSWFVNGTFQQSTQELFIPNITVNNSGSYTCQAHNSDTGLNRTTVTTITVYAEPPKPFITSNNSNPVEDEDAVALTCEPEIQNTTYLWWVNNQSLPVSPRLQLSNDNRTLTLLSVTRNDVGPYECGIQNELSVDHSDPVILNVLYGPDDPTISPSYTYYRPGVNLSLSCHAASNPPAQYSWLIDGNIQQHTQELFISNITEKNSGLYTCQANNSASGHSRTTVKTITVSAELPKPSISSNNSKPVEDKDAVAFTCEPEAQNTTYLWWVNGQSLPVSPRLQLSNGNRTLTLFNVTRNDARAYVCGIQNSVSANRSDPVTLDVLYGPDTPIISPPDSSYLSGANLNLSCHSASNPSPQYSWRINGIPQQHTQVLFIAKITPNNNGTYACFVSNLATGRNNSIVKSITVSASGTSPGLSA

T2: CEACAM5 on cells (UniProt P06731 35-685)
T2 construct: whole, on cells; also called CEACAM5 on LS174T and LoVo cells
T2 sequence (looked up): T1 sequence (looked up)

T3: T cell receptor alpha/beta on purified primary human T cells (human, UniProt P01848 1-140; P01850 1-176)
T3 construct: whole, on cells; also called human primary T cells
T3 TCR alpha (looked up): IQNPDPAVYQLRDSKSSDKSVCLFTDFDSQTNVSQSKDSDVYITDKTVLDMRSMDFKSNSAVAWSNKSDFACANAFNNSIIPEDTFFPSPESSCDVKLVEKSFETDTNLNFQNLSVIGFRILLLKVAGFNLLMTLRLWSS
T3 TCR beta (looked up): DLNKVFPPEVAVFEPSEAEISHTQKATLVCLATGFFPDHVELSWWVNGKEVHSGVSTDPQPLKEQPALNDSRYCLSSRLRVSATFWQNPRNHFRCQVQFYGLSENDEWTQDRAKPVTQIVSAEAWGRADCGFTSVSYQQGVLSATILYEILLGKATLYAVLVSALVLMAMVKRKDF

T4: soluble recombinant cynomolgus TCR alpha/beta-zipper protein (cynomolgus/rhesus monkey)
T4 construct: Made in house in CHOK1SV cells; extracellular domains fused to a zipper protein; also called cynoTCR-zipper protein; not shown: zipper protein (O'Shea et al. 1993)
T4 V domain 1: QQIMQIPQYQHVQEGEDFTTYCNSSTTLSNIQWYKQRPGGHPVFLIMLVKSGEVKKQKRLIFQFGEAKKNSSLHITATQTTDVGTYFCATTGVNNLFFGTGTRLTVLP
T4 V domain 2: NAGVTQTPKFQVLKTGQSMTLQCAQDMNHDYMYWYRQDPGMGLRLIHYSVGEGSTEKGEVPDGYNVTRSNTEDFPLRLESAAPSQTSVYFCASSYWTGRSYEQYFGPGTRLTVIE

B1: NbCEA5 (VHH)
VHH: EVQLVESGGGSVQAGGSLRLSCAASGDTYGSYWMGWFRQAPGKEREGVAAINRGGGYTVYADSVKGRFTISRDTAKNTVYLQMNSLRPDDTADYYCAASGVLGGLHEDWFNYWGQGTLVTVSS
notes: Monovalent Nanobody; also called CEA#1; monovalent anti-CEA Nanobody
B2: T0170055A02 (VHH)
VHH: EVQLVESGGGLVQPGGSLRLSCAASGDVHKINILGWYRQAPAKEREMVAHITIGDATDYADSAKGRFTISRDEAKNMVYLQMNSLKPEDTAVYFCRAYSRIYPYNYWGQGTLVTVSS
notes: Monovalent anti-TCR Nanobody, cluster A; expressed in E. coli as triple Flag, His6-tagged protein; also called T0170PMP055A02; T01700055A02; not shown: C-terminal triple Flag-His6 tag of the E. coli-made monovalent Nanobody
B3: T0170056G05 (VHH)
VHH: B2 VHH with A23V, I33F, A42G, M47K, T52S, A56Q, A74S, Y98F, N105D
notes: Monovalent anti-TCR Nanobody, cluster A; expressed in E. coli as triple Flag, His6-tagged protein; also called T0170PMP056G05; T01700056G05; not shown: C-terminal triple Flag-His6 tag of the E. coli-made monovalent Nanobody
B4: EGFR038G07 (VHH)
VHH: EVQLVESGGGLVQAGGSLRLSCAASGRTFSSYVMGWFRQATGKEREFVATIAWDSGSTYYADSVKGRFTISRDNAKNTVHLQMNSLKPEDTAVYYCAASYNVYYNNYYYPISRDEYDYWGQGTLVTVSS
notes: Monovalent Nanobody; also called monovalent anti-EGFR Nanobody; EGFR monovalent Nanobody

Assays:
[1] = biological target: T1, hCEACAM-5 (R&D Systems, #4128-CM); experiment: SPR (Biacore T100), immobilized hCEACAM-5, 1:1 model
Description: (§1) Thereto, hCEACAM-5 (R&D Systems, #4128-CM) was immobilized onto a CM5 chip via amine coupling, using EDC and NHS chemistry. Purified Nanobodies were injected for 2 minutes at different concentrations (between 0.31 and 2000 nM) and allowed to dissociate for 15 min at a flow rate of 45 μl/min. In between sample injections, the surfaces were regenerated with 10 mM Glycine pH 1.5. HBS-EP+(Hepes buffer pH7.4) was used as running buffer.
(§2) The kinetic constants were calculated from the sensorgrams using the BIAEvaluation software (1:1 interaction). The affinity constants (KD) were calculated from resulting association and dissociation rate constants kon and koff, and are shown in Table C-29.

[2] = biological target: T2, CEACAM5 on cells; experiment: flow cytometry, LS174T cells; design: Top: unit not given here
[3] = biological target: T3, T cell receptor alpha/beta on purified …; experiment: flow cytometry on primary human T cells, MeanFI (PE)
[4] = biological target: T2, CEACAM5 on cells; experiment: flow cytometry, LoVo cells; design: Top: unit not given here
[5] = biological target: T5, EGFR on cells (UniProt P00533 25-1210, limits assumed); experiment: flow cytometry on HER14 cells, MeanFI (PE)
T5 construct: whole, on cells; also called HER14 cells (NIH3T3 transfected with EGFR); EGFR on LS174T and LoVo cells

[6] = biological target: T6, human CD3 expressed on HEK293H cells (human, UniProt P04234 22-171; P09693 23-182; P07766 23-207; P20963 22-164); experiment: flow cytometry, HEK293H human CD3 cells
T6 construct: also called HEK293H human CD3; HEK293H CD3
Description: (§3) Binding of purified monovalent anti-TCR Nanobodies to human TCR(2IAN)/CD3 expressed on HEK293H cells was evaluated and compared with the binding to HEK293H cells transfected with human CD3 in flow cytometry, as outlined in Example 5. Dilution series of anti-TCR Nanobodies starting from 1 μM were applied to the cells. The parental HEK293H cell line was included as TCR/CD3 negative cell line.
Nanobodies clearly bound to human TCR(2IAN)/CD3 expressed on HEK293H but not to the HEK293H cells transfected with human CD3 only, nor to the HEK293H parental cell line. The EC50 values obtained from the dose response curve are depicted in Table C-2.

[7] = biological target: T4, soluble recombinant cynomolgus TCR …; experiment: ELISA, coated soluble cynomolgus TCR-zipper
Description: Quality of the TCR α/β zipper proteins was assessed in an ELISA binding assay. Maxisorp 96-well ELISA plates (Nunc) were coated with 2 μg/mL soluble recombinant human TCR α/β (2XN9)-zipper protein or soluble recombinant cynomolgus TCR α/β-zipper protein. After an overnight incubation, plates were washed and blocked with PBS+1% casein for 1 h at room temperature. Next, plates were incubated with serial dilutions of either a functional flag tagged Nanobody or the functional mouse IgG anti-non-human primate/Rat TCRα/β antibody, clone R73 (eBioscience 16-5960) for 1 h at room temperature while shaking, washed again and incubated with mouse anti-flag-HRP (Sigma, #A8592) respectively rabbit anti-mouse-HRP (Dako, # P0260). After 1 h, TMB One Solution (Promega #G7431) was added. The reaction was stopped with 2M H₂SO₄ and the dose dependent binding was determined by measuring the OD at 450 nm using the Tecan sunrise 4 (FIG. 2).
Binding of purified monovalent anti-TCR Nanobodies to soluble recombinant cynomolgus TCR c/3 protein was evaluated in ELISA (as described in Example 1.2) using 2 μg/ml directly coated recombinant soluble cynomolgus TCR-α/β zipper protein.

[8] = biological target: T6, human CD3 expressed on HEK293H cells; experiment: flow cytometry on HEK293H human CD3 cells, MCF
Description: as §3

[9] = biological target: T4, soluble recombinant cynomolgus TCR …; experiment: BLI (Octet RED384), immobilized cynomolgus TCR-zipper
[10] = biological target: T3, T cell receptor alpha/beta on purified …; experiment: flow cytometry, purified primary human T cells
Description: Periplasmic extracts were screened for cell expressed TCR/CD3 binding using human TCR/CD3 transfected CHO-K1 or HEK293H cells and the respective CHO-K1 or HEK293H reference cell line in a mixed cell line setup. To this end, a large batch of the reference cell lines were labelled with 8 μM PKH26 and frozen. 5×10⁴ PKH labelled reference cells were mixed with 5×10⁴ target cells and incubated with periplasmic extracts for 30 min at 4′C, and washed 3 times. […] Samples were washed, resuspended in FACS Buffer (D-PBS from Gibco, with 10% FBS from Sigma and 0.05% sodium azide from Merck) and then analysed via a BD FACSArray. […] In this gate, 20,000 cells were counted during acquisition. Based on PKH26-SSC distribution, the PKH labelled parental population and the human TCR/CD3 unlabelled target population was selected. For these 2 populations the mean APC value was calculated.
Binding of purified monovalent anti-TCR Nanobodies to human TCR(2XN9)/CD3 expressed on CHO-K1 cells and to purified primary human T cells was evaluated in flow cytometry as outlined in Example 4.1.

[11] = biological target: T4, soluble recombinant cynomolgus TCR …; experiment: BLI (Octet RED384), immobilized cynomolgus TCR-zipper
Description: Binding affinities were measured using Bio-Layer Interferometry (BLI) on an Octet RED384 instrument (Pall ForteBio Corp.). Recombinant human soluble TCR(2XN9)-zipper protein was covalently immobilized on amine-reactive sensors (ForteBio) via NHS/EDC coupling chemistry. For kinetic analysis, sensors were first dipped into running buffer (10 mM Hepes, 150 mM NaCl, 0.05% p20, pH7.4 from GE Healthcare Life Sciences) to determine baseline setting. […] Affinity constants (KD) were calculated applying a 1:1 interaction model using the ForteBio Data Analysis software.
Binding affinities of the monovalent anti-TCR Nanobodies were measured using Bio-Layer Interferometry (BLI) on an Octet RED384 instrument (Pall ForteBio Corp.) essentially as described in Example 7.1 using cynomolgus TCR α/β zipper.

[12] = biological target: T7, hEGFR (Sino Biological, #10001-H08H) (human, UniProt P00533 25-645); experiment: SPR (Biacore T100), immobilized hEGFR, 1:1 model
T7 construct: extracellular domain; Bought protein; also called hEGFR ECD; human EGFR protein
Description: as §1, with “hEGFR (Sino Biological, #10001-H08H)” for “hCEACAM-5 (R&D Systems, #4128-CM)”, “1.37” for “0.31”, “3000” for “2000”, “50” for “10”, “NaOH.” for “Glycine pH 1.5.”
as §2

[13] = biological target: T5, EGFR on cells; experiment: flow cytometry, LS174T cells; design: Top: unit not given here
[14] = biological target: T5, EGFR on cells; experiment: flow cytometry, HER14 cells
[15] = biological target: T5, EGFR on cells; experiment: flow cytometry, LoVo cells; design: Top: unit not given here

Binder | binding result [3] | binding result [5] | MCF at 1 µM [6] [MCF] | EC50 [7] [nM] | binding result [8] | fold lower affinity than for soluble recombinant human TCR α/β zipper [9] [fold] | EC50 [10] [nM] | Kd [11] [nM] | koff [11] [s⁻¹] | kon [11] [M⁻¹ s⁻¹] | also measured
B1 | no binding (tested: 5e-7 M) | no binding (tested: 5e-7 M) | – | – | – | – | – | – | – | – | Kd [1]: 0.51 nM; koff [1]: 0.00051 s⁻¹; kon [1]: 990000 M⁻¹ s⁻¹; EC50 [2]: 0.59 nM; Top [2]: 43000; EC50 [4]: 1.2 nM; Top [4]: 11200
B2 | – | – | 1190 | 160 | no binding (tested: 1e-6 M) | 10 | 91 | 210 | 0.024 | 110000 | –
B3 | – | no binding (tested: 5e-7 M) | 352 | 77 | no binding (tested: 1e-6 M) | 10 | 91 | 150 | 0.016 | 110000 | –
B4 | no binding (tested: 5e-7 M) | – | – | – | – | – | – | – | – | – | Kd [12]: 0.763 nM; koff [12]: 0.000426 s⁻¹; kon [12]: 558000 M⁻¹ s⁻¹; EC50 [13]: 0.93 nM; Top [13]: 32200; EC50 [14]: 1.8 nM; Top [14]: 166000; EC50 [15]: 0.54 nM; Top [15]: 52300
